# Measured values published in IntAct's records for PubMed 11777938.
# B1: Anaphase-promoting complex subunit 8 (Schizosaccharomyces pombe (strain ATCC 38366 / 972)), O94556 (parent)
# chain: MTVSLNTMMGVDGLEDQEQLREIRNCLLKCISECSERGLVYAVRWAAEMLNGMNPIEMEHIPFSSTPTGEFDLDPDMANEKLLEVEEKNIYLLAKSYFDCKEFERAAYTLQNCKSSKSIFLRLYSKYLAGEKKSEEENETLLNTNLTLSSTNREFYYISEVLESLHYQGNKDPYLLYLSGVVYRKRKQDSKAIDFLKSCVLKAPFFWSAWLELSLSIDSLETLTTVVSQLPSTHIMTKIFYVYASHELHQVNSSAYEKLAEAEIIFPNSRYLKTQRALLTYDSRDFDEAESLFENILTNDPYRLDDMDTYSNVLFVLENKSKLGFLAQVASSIDKFRPETCSIIGNYYSLLSEHEKAVTYFKRALQLNRNYLSAWTLMGHEYVELKNTHAAIESYRLAVDVNRKDYRAWYGLGQTYEVLDMHFYALYYFQRATALRPYDQRMWQALGNCYEKIDRPQEAIKSYKRALLGSQTNSSILVRLGNLYEELQDLNSAASMYKQCIKTEETEISPETIKARIWLARWELGKKNYREAELYLSEVLNGDLELEEAKALLRELRSRMEHSYD
# partner: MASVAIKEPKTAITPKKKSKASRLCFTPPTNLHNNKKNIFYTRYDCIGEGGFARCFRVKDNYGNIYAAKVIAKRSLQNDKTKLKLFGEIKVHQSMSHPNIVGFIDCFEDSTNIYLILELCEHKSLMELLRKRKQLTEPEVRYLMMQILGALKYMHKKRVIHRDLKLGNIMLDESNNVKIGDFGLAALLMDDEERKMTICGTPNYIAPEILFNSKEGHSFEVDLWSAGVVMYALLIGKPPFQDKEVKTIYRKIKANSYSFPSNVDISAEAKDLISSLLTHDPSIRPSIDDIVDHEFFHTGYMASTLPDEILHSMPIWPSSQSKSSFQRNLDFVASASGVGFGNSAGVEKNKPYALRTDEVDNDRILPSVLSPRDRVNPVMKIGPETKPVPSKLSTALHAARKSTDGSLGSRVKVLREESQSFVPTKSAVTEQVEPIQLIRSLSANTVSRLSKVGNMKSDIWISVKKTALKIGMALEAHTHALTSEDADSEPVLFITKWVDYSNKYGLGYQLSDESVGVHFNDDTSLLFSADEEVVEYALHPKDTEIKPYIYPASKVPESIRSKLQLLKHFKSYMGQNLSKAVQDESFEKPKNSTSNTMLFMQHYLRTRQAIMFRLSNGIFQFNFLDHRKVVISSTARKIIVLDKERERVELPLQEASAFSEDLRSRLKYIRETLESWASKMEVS
# Variants of: B1
# Details: with plo1_schpo plo1, P50528
row,Variant,effect of a mutation on the interaction
1,MTVSLNTMMGVDGLEDQEQLREIRNCLLKCISECSERGLVYAVRWAAEMLNGMNPIEMEHIPFSSTPTGEFDLDPDMANEKLLEVEEKNIYLLAKSYFDCKEFERAAYTLQNCKSSKSIFLRLYSKYLAGEKKSEEENETLLNTNLTLSSTNREFYYISEVLESLHYQGNKDPYLLYLSGVVYRKRKQDSKAIDFLKSCVLKAPFFWSAWLELSLSIDSLETLTTVVSQLPSTHIMTKIFYVYASHELHQVNSSAYEKLAEAEIIFPNSRYLKTQRALLTYDSRDFDEAESLFENILTNDPYRLDDMDTYSNVLFVLENKSKLGFLAQVASSIDKFRPETCSIIGNYYNLLSEHEKAVTYFKRALQLNRNYLSAWTLMGHEYVELKNTHAAIESYRLAVDVNRKDYRAWYGLGQTYEVLDMHFYALYYFQRATALRPYDQRMWQALGNCYEKIDRPQEAIKSYKRALLGSQTNSSILVRLGNLYEELQDLNSAASMYKQCIKTEETEISPETIKARIWLARWELGKKNYREAELYLSEVLNGDLELEEAKALLRELRSRMEHSYD [S349N],decreasing interaction
